Measurements published in patent US20160289285A1 (Molecular Partners, published 2016).

B1: Protein #36 (designed binder)
chain: MRGSHHHHHHGSDLGKKLLEAARAGQDDEVRILMANGADVNANDSSGLTPLHLAAFYGHLEIVEVLLKYGADVNADDDWGHTPLHLAAHYGHLEIVEVLLKHGADVNAIDTRGLTPLHLAAIAGHLEIVEVLLKYGADVNAQDKFGKTAFDISIDNGNEDLAEILQKAA
B2: Protein #30 (designed binder)
chain: MRGSHHHHHHGSDLGKKLLEAARAGQDDEVRILMANGADVNTHDNFGDTPLHLAASIGHLEIVEVLLKHGADVNAFDSYGDTPLHLAASSGHLEIVEVLLKYGADVNALDYNGNTPLHLAANSGRLEIVEVLLKHGADVNAQDKFGKTAFDISIDNGNEDLAEILQKAA
B3: Protein #31 (designed binder)
chain: MRGSHHHHHHGSDLGKKLLEAARAGQDDEVRILMANGADVNAVDAWGDTPLHLAASIGHLEIVEVLLKNGADVNAADYYGDTPLHLAASAGHLEIVEVLLKYGADVNAQDDNGNTPLHLAANTGRLEIVEVLLKHGADVNAQDKFGKTAFDISIDNGNEDLAEILQKAA
B4: Protein #32 (designed binder)
chain: MRGSHHHHHHGSDLGKKLLEAARAGQDDEVRILMANGADVNAIDTWGNTPLHLAADYGHLEIVEVLLKNGADVNALDWFGDTPLHLAASLGHLEIVEVLLKNGADVNAVDTYGNTPLHLAANTGRLEIVEVLLKYGADVNAQDKFGKTAFDISIDNGNEDLAEILQKAA
B5: Protein #24 (designed binder)
chain: MRGSHHHHHHGSDLGKKLLEAARAGQDDEVRILMANGADVNAKDRFGDTPLHLAADIGHLEIVEVLLKAGADVNAKDWFGNTPLHLAASFGHLEIVEVLLKAGADVNAKDDYGNTPLHLAANTGHLEIVEVLLKAGADVNAQDKFGKTAFDISIDNGNEDLAEILQKAA
B6: Protein #25 (designed binder)
chain: MRGSHHHHHHGSDLGKKLLEAARAGQDDEVRILMANGADVNAKDRYGDTPLHLAADIGHLEIVEVLLKAGADVNAEDYFGNTPLHLAASYGHLEIVEVLLKAGADVNAKDDYGNTPLHLAANTGHLEIVEVLLKAGADVNAQDKSGKTPADLAADAGHEDIAEVLQKAA
B7: Protein #27 (designed binder)
chain: MRGSHHHHHHGSDLGKKLLEAARAGQDDEVRILLKAGADVNAKDRYGDTPLHLAADAGHLKIVEVLLKAGADVNAEDYFGNTPLHLAASAGHLEIVEVLLKAGADVNAKDDAGNTPLHLAANTGHLKIVEVLLKAGADVNAQDKSGKTPADLAADAGHEDIAEVLQKAA
B8: Protein #33 (designed binder)
chain: MRGSHHHHHHGSDLGKKLLEAARAGQDDEVRILMANGADVNAQDRWGDTPLHLAASAGHLKIVEVLLKYGADVNADDVFGDTPLHLAASLGHLEIVEVLLKYGADVNADDYAGNTPLHLAANTGHLEIVEVLLKHGADVNAQDKFGKTAFDISIDNGNEDLAEILQKAA
B9: Protein #34 (designed binder)
chain: MRGSHHHHHHGSDLGKKLLEAARAGQDDEVRILMANGADVNAQDRWGDTPLHLAASAGHLKIVEVLLKYGADVNADDVFGDTPLHLAASLGHLEIVEVLLKYGADVNADDYAGNTPLHLAANTGHLEIVEVLLKYGADVNAQDKFGKTAFDISIDNGNEDLAEILQKAA
B10: Protein #35 (designed binder)
chain: MRGSHHHHHHGSDLGKKLLEAARAGQDDEVRILMANGADVNANDFLGLTPLHLAASTGHLEIVEVLLKYGADVNAIDAYGHTPLHLAANNGHLEIVEVLLKYGADVNAIDHFGYTPLHLAAMFGHLEIVEVLLKNGADVNAQDKFGKTAFDISIDNGNEDLAEILQKAA
B11: Protein #37 (designed binder)
chain: MRGSHHHHHHGSDLGKKLLEAARAGQDDEVRILMANGADVNASDDTGLTPLHLAANRGHLEIVEVLLKHGADVNANDFAGMTPLHLAANVGHLEIVEVLLKYGADVNAHDDYGLTPLHLAANWRHLEIVEVLLKNGADVNAQDKFGKTAFDISIDNGNEDLAEILQKAA
B12: Protein #40 (designed binder)
chain: MRGSHHHHHHGSDLGKKLLEAARAGQDDEVRILMASGADVNAADYFSHTPLHLAARDGHLKIVEVLLKYGADVDASDFAGKTPLHLAANDGHLEIVEVLLKHDADVNAQDKFGKTAFDISIDNGNEDLAEILQKAA
B13: Protein #42 (designed binder)
chain: MRGSHHHHHHGSDLGKKLLEAARAGQDDEVRILMANGADVNAADYFGHTPLHLAARDGHLKIVEVLLKYGADVNASDFAGKTPLHLAANDGHLEIVEVLLKHGADVNAQDKFGKTAFDISIDNGNEDLAEILQKAA
B14: Protein #41 (designed binder)
chain: MRGSHHHHHHGSDLGKELLEAARAGQDDEVRILMANGADVNAADYFGHTPLHLAARNGHLKIVEVLLKYGADVNASDFAGKTPLHLAANDGHLEIVEVLLKHGADVNAQDIFGKTAFEISIDNGNEDLAEILQKAA
B15: Protein #51 (designed binder)
chain: MRGSHHHHHHGSDLGKKLLEAARAGQDDEVRILMANGADVNAKDYFSHTPLHLAARNGHLKIVEVLLKAGADVNAKDFAGKTPLHLAANDGHLEIVEVLLKHGADVNAQDIFGKTPADIAADAGHEDIAEVLQKAA
B16: Protein #44 (designed binder)
chain: MRGSHHHHHHGSDLDKKLLEAARAGQDDEVRILMANGADVNAKDYFSHTPLHLAARNGHLEIVEVLLKAGADVNAKDFAGKTPLHLAANDGHLEIVEVLLKHGADVNAQDIFGKTPADIAADAGHEDIAEVLQKAA
B17: Protein #49 (designed binder)
chain: MRGSHHHHHHGSDLGKKLLEAARAGQDDEVRELLKAGADVNAKDYFSHTPLHLAARNGHLKIVEVLLKAGADVNAKDFAGKTPLHLAANDGHLEIVEVLLKAGADVNAQDIFGKTPADIAADAGHEDIAEVLQKAA
B18: Protein #46 (designed binder)
chain: MRGSHHHHHHGSDLGKKLLEAARAGQDDEVRILLAAGADVNAKDYFSHTPLHLAARNGHLKIVEVLLKAGADVNAKDFAGKTPLHLAANDGHLEIVEVLLKHGADVNAQDIFGKTPADIAADAGHEDIAEVLQKAA
B19: Protein #47 (designed binder)
chain: MRGSHHHHHHGSDLDKKLLEAARAGQDDEVRILMANGADVNAKDYFSHTPLHLAARNGHLKIVEVLLKAGADVNAKDFAGKTPLHLAANDGHLEIVEVLLKHGADVNAQDIFGKTPADIAADAGHEDIAEVLQKAA
B20: Protein #45 (designed binder)
chain: MRGSHHHHHHGSDLGKKLLEAARAGQDDEVRILMANGADVNAKDYFSHTPLHLAARNGHLEIVEVLLKAGADVNAKDFAGKTPLHLAANDGHLEIVEVLLKHGADVNAQDIFGKTPADIAADAGHEDIAEVLQKAA
B21: Protein #50 (designed binder)
chain: MRGSHHHHHHGSDLGKKLLEAARAGQDDEVRELLKAGADVNAKDYFSHTPLHLAARNGHLKIVEVLLKAGADVNAKDFAGKTPLHLAANEGHLEIVEVLLKAGADVNAQDIFGKTPADIAADAGHEDIAEVLQKAA
B22: Protein #43 (designed binder)
chain: MRGSHHHHHHGSDLGKKLLEAARAGQDDEVRILMANGADVNAADYFSHTPLHLAARDGHLKIVEVLLKYGADVNASDFAGKTPLHLAANDGHLEIVEVLLKHGADVNAQDIFGKTAFDISIDNGNEDLAEILQKAA
B23: Protein #48 (designed binder)
chain: MRGSHHHHHHGSDLGKKLLEAARAGQDDEVRILLKAGADVNAKDYFSHTPLHLAARNGHLKIVEVLLKAGADVNAKDFAGKTPLHLAANDGHLEIVEVLLKAGADVNAQDIFGKTPADIAADAGHEDIAEVLQKAA
B24: Protein #52 (designed binder)
chain: MRGSHHHHHHGSDLDKKLLEAARAGQDDEVRILMANGADVNAKDERGTTPLHLAAVYGHLEIVEVLLKAGADVNAKNETGYTPLHLADSSGHLEIVEVLLKHSADVNAQDKSGKTPADLAADAGHEDIAEVLQKAA
B25: Protein #54 (designed binder)
chain: MRGSHHHHHHGSDLDKKLLEAARAGQDDEVRILMANGADVNAKDERGTTPLHLAAVYGHLEIVEVLLKAGADVNAKNETGYTPLHLADSSGHLEIVEVLLKAGADVNAQDKSGKTPADLAADAGHEDIAEVLQKAA
B26: Protein #55 (designed binder)
chain: MRGSHHHHHHGSDLDKKLLEAARAGQDDEVRILMANGADVNAKDERGTTPLHLAAVYGHLEIVEVLLKAGADVNAKNETGYTPLHLADSSGHLEIVEVLLKHGADVNAQDKSGKTPADLAADAGHEDIAEVLQKAA
B27: Protein #56 (designed binder)
chain: MRGSHHHHHHGSDLDKKLLEAARAGQDDEVRILMANGADVNAKDERGTTPLHLAAVYGHLEIVEVLLKAGADVNAKNETGYTPLHLADSSGHLEIVEVLLKASADVNAQDKSGKTPADLAADAGHEDIAEVLQKAA
B28: Protein #57 (designed binder)
chain: MRGSHHHHHHGSDLGKKLLEAARAGQDDEVRILMANGADVNAKDYFSHTPLHLAARNGHLKIVEVLLKAGADVNAKDFAGKTPLHLAANDGHLEIVEVLLKHGADVNAQDIFGKTPADIAADAGHEDIAEVLQKLGSPTPTPTTPTPTPTTPTPTPTGSRSDLDITGLKLN
B29: Protein #53 (designed binder)
chain: MRGSHHHHHHGSDLGKKLLEAARAGQDDEVRFLMANGADVNAADERGTTPLHLAAVYGHLEIVEVLLKNGADVNAQNETGYTPLHLADSSGHLEIVEVLLKHSADVNAQDKFGKTAFDISIDNGNEDLAEILQKAA

What follows are binders tested against T1, human HGF (human, UniProt P14210 32-728) (assay: SPR (ProteOn)).
T1 construct: also called hepatocyte growth factor
T1 sequence (P14210 32-728 limits assumed): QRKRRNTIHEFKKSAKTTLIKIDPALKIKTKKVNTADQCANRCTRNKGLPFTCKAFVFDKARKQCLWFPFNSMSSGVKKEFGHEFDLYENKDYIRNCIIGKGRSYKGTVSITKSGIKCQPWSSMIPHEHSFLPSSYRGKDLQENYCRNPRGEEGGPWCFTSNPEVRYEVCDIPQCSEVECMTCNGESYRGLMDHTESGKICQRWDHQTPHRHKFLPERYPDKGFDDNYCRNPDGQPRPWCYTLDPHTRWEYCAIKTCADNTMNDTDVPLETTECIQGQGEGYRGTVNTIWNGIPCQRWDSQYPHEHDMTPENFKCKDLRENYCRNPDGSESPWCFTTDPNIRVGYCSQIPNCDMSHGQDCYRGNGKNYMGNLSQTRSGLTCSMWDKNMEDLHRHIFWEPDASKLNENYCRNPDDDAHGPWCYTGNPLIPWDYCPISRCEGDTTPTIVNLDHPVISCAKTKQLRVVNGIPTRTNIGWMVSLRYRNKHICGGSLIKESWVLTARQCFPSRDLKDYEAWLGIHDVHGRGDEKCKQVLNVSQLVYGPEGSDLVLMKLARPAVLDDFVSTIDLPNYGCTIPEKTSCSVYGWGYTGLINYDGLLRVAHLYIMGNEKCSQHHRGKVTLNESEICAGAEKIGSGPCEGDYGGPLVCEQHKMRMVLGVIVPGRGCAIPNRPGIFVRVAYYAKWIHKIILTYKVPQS
Method: (§1) SPR was measured using a ProteOn instrument (BioRad) and measurement was performed according standard procedures known to the person skilled in the art.
B1: binds.
B2: binds.
B3: binds.
B4: binds.
In the case of B5, the Kd is reported as 0.163 nM.
Work on B6 yielded a Kd of 0.066 nM.
B7 was tested, and the Kd was 0.129 nM.
B8: binds.
B9: binds.
B10: binds.
B11: binds.

What follows are binders tested against T2, human serum albumin (human, UniProt P02768 25-609) (assay: SPR (ProteOn)).
T2 construct: For SEC-MALS purified from CSL Behring 20% solution; also called HSA; SA (human)
T2 sequence (P02768 25-609 limits assumed): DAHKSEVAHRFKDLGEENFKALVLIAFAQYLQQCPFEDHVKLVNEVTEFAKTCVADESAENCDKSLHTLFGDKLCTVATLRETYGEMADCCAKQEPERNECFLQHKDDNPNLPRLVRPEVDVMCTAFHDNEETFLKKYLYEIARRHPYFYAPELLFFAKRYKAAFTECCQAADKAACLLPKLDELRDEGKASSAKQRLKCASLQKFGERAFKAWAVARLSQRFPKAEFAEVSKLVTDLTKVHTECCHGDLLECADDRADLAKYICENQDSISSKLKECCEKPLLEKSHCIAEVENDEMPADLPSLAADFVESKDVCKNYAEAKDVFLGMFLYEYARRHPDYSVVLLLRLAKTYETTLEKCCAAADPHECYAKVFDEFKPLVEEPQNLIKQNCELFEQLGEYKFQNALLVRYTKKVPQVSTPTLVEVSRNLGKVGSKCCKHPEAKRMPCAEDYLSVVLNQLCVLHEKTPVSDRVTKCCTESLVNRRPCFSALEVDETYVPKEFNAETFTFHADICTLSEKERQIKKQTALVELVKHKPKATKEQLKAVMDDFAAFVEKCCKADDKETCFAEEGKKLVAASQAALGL
Method: as §1
B12: binds.
B13: binds.
B14: binds.
Work on B15 yielded a Kd of 14 nM.
Work on B16 yielded a Kd of 26 nM.
B17 gave a Kd of 15 nM.
Work on B18 yielded a Kd of 22 nM.
With B19 the Kd was 27 nM.
B20 showed a Kd of 13 nM.
In the case of B21, the Kd is reported as 27 nM.
B22: binds.
B23 was tested, and the Kd was 20 nM.
In the case of B24, the Kd is reported as 6 nM.
In the case of B25, the Kd is reported as 11 nM.
B26 showed a Kd of 15 nM.
B27: binds.
B28: binds.
B29: binds.
